Tests used:
[1] = target: T1, translation elongation factor 2 (EF-2), toxin-resistant form without diphthamide (dph1::TRP1 strains)
T1 chain: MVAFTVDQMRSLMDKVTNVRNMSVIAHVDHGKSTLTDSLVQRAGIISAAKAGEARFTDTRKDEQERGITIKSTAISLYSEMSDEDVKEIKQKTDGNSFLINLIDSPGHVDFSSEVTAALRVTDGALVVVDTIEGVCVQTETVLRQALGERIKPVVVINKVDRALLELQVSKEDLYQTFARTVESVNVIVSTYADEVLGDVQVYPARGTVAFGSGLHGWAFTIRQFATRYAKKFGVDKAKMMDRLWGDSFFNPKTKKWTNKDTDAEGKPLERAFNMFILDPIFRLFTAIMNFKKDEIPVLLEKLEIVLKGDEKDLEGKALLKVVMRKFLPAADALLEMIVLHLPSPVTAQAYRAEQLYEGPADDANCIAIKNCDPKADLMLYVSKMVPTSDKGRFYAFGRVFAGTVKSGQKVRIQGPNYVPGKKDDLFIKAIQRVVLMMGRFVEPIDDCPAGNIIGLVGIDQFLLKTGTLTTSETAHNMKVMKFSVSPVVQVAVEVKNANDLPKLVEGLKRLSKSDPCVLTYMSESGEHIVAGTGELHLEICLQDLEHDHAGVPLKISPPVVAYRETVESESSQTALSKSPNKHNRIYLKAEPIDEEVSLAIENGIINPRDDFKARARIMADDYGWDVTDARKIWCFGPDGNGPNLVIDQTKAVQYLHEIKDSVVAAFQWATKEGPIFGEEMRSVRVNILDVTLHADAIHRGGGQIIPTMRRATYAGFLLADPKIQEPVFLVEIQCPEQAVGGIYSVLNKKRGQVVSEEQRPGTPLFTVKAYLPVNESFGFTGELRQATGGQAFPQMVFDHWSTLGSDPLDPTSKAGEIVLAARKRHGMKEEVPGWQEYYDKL

[2] = target: T2, translation elongation factor 2 (EF-2), toxin-sensitive form with diphthamide
T2 chain: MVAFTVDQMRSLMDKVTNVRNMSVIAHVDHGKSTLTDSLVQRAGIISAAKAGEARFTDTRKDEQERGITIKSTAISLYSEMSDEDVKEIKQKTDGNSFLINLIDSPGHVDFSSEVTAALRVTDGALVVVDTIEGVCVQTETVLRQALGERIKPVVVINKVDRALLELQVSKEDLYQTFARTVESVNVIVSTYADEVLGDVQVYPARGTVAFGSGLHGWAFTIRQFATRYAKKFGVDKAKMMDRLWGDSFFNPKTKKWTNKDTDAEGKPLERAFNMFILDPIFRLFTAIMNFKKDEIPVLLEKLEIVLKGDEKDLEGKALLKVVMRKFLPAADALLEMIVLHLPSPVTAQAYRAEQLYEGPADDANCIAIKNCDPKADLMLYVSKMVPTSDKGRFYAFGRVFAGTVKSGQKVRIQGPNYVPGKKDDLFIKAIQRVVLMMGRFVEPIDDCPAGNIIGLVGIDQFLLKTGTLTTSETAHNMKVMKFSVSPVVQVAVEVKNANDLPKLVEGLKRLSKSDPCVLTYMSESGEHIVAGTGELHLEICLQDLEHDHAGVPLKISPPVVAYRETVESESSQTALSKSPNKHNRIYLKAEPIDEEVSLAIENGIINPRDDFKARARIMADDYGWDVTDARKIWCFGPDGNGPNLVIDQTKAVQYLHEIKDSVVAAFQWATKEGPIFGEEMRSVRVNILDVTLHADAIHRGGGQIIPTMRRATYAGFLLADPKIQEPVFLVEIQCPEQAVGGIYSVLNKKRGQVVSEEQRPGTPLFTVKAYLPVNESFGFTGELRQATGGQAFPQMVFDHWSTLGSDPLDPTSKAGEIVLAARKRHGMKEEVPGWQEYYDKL

B1: diphtheria toxin F2 fragment (protein)
chain: GADDVVDSSKSFVMENFSSYHGTKPGYVDSIQKGIQKPKSGTQGNYDDDWKGFYSTDNKYDAAGYSVDNENPLSGKAGGVVKVTYPGLTKVLALKVDNAETIKKELGLSLTEPLMEQVGTEEFIKRFGDGASRVVLSLPFAEGSSSVEYINNWEQAKALSVELEINFETRGKRGQDAMYEYMAQACAGNRVRR
[1]
  viable diploids after mating of the killer strain (TMY401 with pTM147) with the diphtheria toxin-resistant strain TMY403 (dph1::TRP1), selected on SC-Ura, His: healthy diploids are readily obtained
[2]
  viable diploids after mating of the killer strain (TMY401 with pTM147) with the target strain (TMY407 with pRS426), selected on SC-Ura, His: very few viable diploids appear at the intersection of the killer and target strains
